Test results: patent US20060240053

T1: peptide substrate EFDLELIEED (SEQ ID NO: 31)
T1 chain: EFDLELIEED

T2: RP1 retropepsin inhibitor Ac-Leu-Val-Phe-aldehyde (Bachem N 1395.0005)
T2 chain: LVF

T3: RP2 retropepsin inhibitor Ac-Leu-Leu-Met-aldehyde (Bachem N 1315.0005)
T3 chain: LLM

T4: RP3 retropepsin inhibitor Ac-Leu-Leu-Nle-aldehyde (Bachem N 1320.0005)
T4 chain: LLX

T5: corneodesmosin extracted from human stratum corneum, Q15517
T5 chain: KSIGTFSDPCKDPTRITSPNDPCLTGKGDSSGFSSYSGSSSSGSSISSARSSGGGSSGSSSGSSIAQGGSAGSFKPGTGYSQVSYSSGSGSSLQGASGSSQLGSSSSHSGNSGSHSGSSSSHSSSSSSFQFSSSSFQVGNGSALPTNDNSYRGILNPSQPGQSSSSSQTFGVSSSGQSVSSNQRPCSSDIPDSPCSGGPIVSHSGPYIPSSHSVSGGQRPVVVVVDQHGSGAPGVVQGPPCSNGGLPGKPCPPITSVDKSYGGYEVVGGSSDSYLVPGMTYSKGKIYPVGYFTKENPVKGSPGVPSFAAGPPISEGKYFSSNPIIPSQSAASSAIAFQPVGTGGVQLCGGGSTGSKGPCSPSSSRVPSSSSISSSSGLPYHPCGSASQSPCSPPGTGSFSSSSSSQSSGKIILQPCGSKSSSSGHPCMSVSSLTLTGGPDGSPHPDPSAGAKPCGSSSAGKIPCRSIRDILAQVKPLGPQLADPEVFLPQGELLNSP


How the values were obtained:
[1] = target: T1, peptide substrate EFDLELIEED (SEQ ID …)
[2] = target: peptide substrates with amino acid substitutions (among SEQ ID NO: 32, 33, 34, 35)
[3] = target: T2, RP1 retropepsin inhibitor …
[4] = target: T3, RP2 retropepsin inhibitor …
[5] = target: T4, RP3 retropepsin inhibitor …
[6] = target: casein substrate sold under the name Enzchek (Molecular Probes)
[7] = target: T5, corneodesmosin extracted from human …
[8] = target: oxidized beta-chain of insulin (Sigma)
oxidized beta-chain of insulin (Sigma), sequence (chain, as listed by the source): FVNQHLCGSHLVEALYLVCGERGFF

Row | Protein | autocleavage in acetate buffer pH 4.5, SDS-PAGE over time | hydrolysis of quenched peptide substrate (fluorescence 340/450 nm) [1] | hydrolysis of quenched peptide substrate (fluorescence 340/450 nm) [2] | kinetics for casein hydrolysis (fluorescence 485/535 nm) [3] | kinetics for casein hydrolysis (fluorescence 485/535 nm) [4] | kinetics for casein hydrolysis (fluorescence 485/535 nm) [5] | caseinolytic activity [6] | % Residual corneodesmosin T24 h/T0*100 [7] | hydrolysis of the substrate followed by HPLC [8]
1 | recombinant fusion protein GST-SASPase delta1-84 (SEQ ID NO: 4) (protein) MAGSGARSEEGRRQHAFVPEPFDGANVVPNLWLHSFEVINDLNHWDHITKLRFLKESLRGEALGVYNRLSPQDQGDYGTVKEALLKAFGVPGAAPSHLPKEIVFANSMGKGYYLKGKIGKVPVRFLVDSGAQVSVVHPNLWEEVTDGDLDTLQPFENVVKVANGAEMKILGVWDTAVSLGKLKLKAQFLVANASAEEAIIGTDVLQDHNAILDFEHRTCTLKGKKFRLLPVGGSLEDEFDLELIEEDPSSEEGRQELSH | A decrease in the whole form GST-SASPase C27 is observed over time, which demonstrates an autocleavage and, consequently, an autoactivation | the natural (wt) peptide is effectively hydrolyzed by the SASPase | amino acid substitutions in the sequence of this peptide can generate substrates for which the SASPase has greater affinity | – | – | – | – | – | –
2 | activated SASPase (SEQ ID NO: 6) (protein) ANSMGKGYYLKGKIGKVPVRFLVDSGAQVSVVHPNLWEEVTDGDLDTLQPFENVVKVANGAEMKILGVWDTAVSLGKLKLKAQFLVANASAEEAIIGTDVLQDHNAILDFEHRTCTLKGKKFRLLPVGGSLEDEFDLE | – | – | – | the kinetics for casein hydrolysis, in the presence of the RP1 and RP2 retropepsin inhibitors, are lower than the control | the kinetics for casein hydrolysis, in the presence of the RP1 and RP2 retropepsin inhibitors, are lower than the control | the kinetics for casein hydrolysis, in the presence of the RP3 retropepsin inhibitor, are significantly higher than those obtained under the control conditions | Its caseinolytic activity was, moreover, demonstrated (results not shown) | 75% | These results show that the activated SASPase is capable of degrading insulin
